Earlier results as cited in patent US10709784B2, “Metal chelating compositions and methods for controlling the growth or activities of a living cell or organism” (CHELATION PARTNERS INCORPORATED, priority 2011, dated 2020).

Settings: comparison value, molecular weight 80 kDa/mole

B1: lactoferrin: iron binding defence protein, molecular weight 80 kDa/mole (protein, UniProt P02788 20-710, looked up)
Lactotransferrin: GRRRSVQWCAVSQPEATKCFQWQRNMRKVRGPPVSCIKRDSPIQCIQAIAENRADAVTLDGGFIYEAGLAPYKLRPVAAEVYGTERQPRTHYYAVAVVKKGGSFQLNELQGLKSCHTGLRRTAGWNVPIGTLRPFLNWTGPPEPIEAAVARFFSASCVPGADKGQFPNLCRLCAGTGENKCAFSSQEPYFSYSGAFKCLRDGAGDVAFIRESTVFEDLSDEAERDEYELLCPDNTRKPVDKFKDCHLARVPSHAVVARSVNGKEDAIWNLLRQAQEKFGKDKSPKFQLFGSPSGQKDLLFKDSAIGFSRVPPRIDSGLYLGSGYFTAIQNLRKSEEEVAARRARVVWCAVGEQELRKCNQWSGLSEGSVTCSSASTTEDCIALVLKGEADAMSLDGGYVYTAGKCGLVPVLAENYKSQQSSDPDPNCVDRPVEGYLAVAVVRRSDTSLTWNSVKGKKSCHTAVDRTAGWNIPMGLLFNQTGSCKFDEYFSQSCAPGSDPRSNLCALCIGDEQGENKCVPNSNERYYGYTGAFRCLAENAGDVAFVKDVTVLQNTDGNNNEAWAKDLKLADFALLCLDGKRKPVTEARSCHLAMAPNHAVVSRMDKVERLKQVLLHQQAKFGRNGSDCPDKFCLFQSETKNLLFNDNTECLARLHGKTTYEKYLGPQYVAGITNLKKCSTSPLLEACEFLRK
- Fe bound per mole: 2 atoms of Fe/mole
